Assay results published in article PMC4119751 (Biochemistry, 2013).
Positions count from the first letter of the chain named. Where two headings read alike, the source gives them in different places. Bridge positions count the residues as written; N and C are the ends. Ends that are not written are not given here.

T1: 14-mer V3 peptide KRIHIGPGRAFYTT (MN sequence) (HIV-1 strain MN, V3 crown (peptide))
T1 chain: KRIHIGPGRAFYTT

T2: V3 peptide with Arg^315Gln mutation KRIHIGPGQAFYTT (HIV-1 strain MN, V3 crown, Arg315Gln …, point mutant)
T2 chain: KRIHIGPGQAFYTT

B1: Fv 447–52D Tyr^H100JThr (other, human)
VH: EVQLVESGGGLVKPGGSLRLTCVASGFTFSDVWLNWVRQAPGKGLEWVGRIKSRTDGGTTDYAASVKGRFTISRDDSKNTLYLQMNSLKTEDTAVYSCTTDGFIMIRGVSEDYYYTYMDVWGKGTTVTVSS
VL: QSVLTQPPSVSAAPGQKVTISCSGSSSNIGNNYVLWYQQFPGTAPKLLIYGNNKRPSGIPDRFSGSKSGTSATLGITGLQTGDEADYFCATWDSGLSADWVFGGGTKLTVL
B2: Fv 447–52D Asp^H95Asn (other, human)
VH: B1 VH with D101N, T116Y
VL: B1 VL
B3: Fv 447–52D wild type (other, human)
VH: B1 VH with T116Y
VL: B1 VL
B4: Fv 447–52D Trp^L96Ala (other, human)
VH: B1 VH with T116Y
VL: B1 VL with W100A
B5: Fv 447–52D Trp^L91Ala (other, human)
VH: B1 VH with T116Y
VL: B1 VL with W92A
B6: Fv 447–52D Trp^H33Ala (other, human)
VH: B1 VH with W33A, T116Y
VL: B1 VL

Experiments:
[1] = tested on: wild type Fv 447–52D; assay: ITC, V3 peptide variants titrated into wild type Fv 447–52D; type: binding, human; settings: linear and cyclic V3 with wild type Fv, ITC 25 °C
[2] = target: V3_(MNCYCLIC) 14mer peptide … (HIV-1 strain MN); assay: ITC
[3] = target: Env of HIV-1 SF162 on pseudovirus (HIV-1 strain SF162)
[4] = target: T1, 14-mer V3 peptide KRIHIGPGRAFYTT (MN …); assay: ITC
[5] = target: T1, 14-mer V3 peptide KRIHIGPGRAFYTT (MN …); assay: ITC
[6] = target: T2, V3 peptide with Arg^315Gln mutation …; assay: ITC
[7] = target: T1, 14-mer V3 peptide KRIHIGPGRAFYTT (MN …); assay: ITC
[8] = tested on: SF162 pseudovirus; assay: TZM-bl neutralization assay against SF162 pseudovirus; type: cell-based, HIV-1; settings: Fv mutant vs wild type Fv

| Molecule | IC50 of neutralisation of SF162 pseudovirus, TZM-bl cells (luciferase) [3] | Kd [4] | other [5] | other results |
| --- | --- | --- | --- | --- |
| CRIHIGPGRAFYTC (disulfide 1-14 (inferred)) [V3 Cyclic] | – | – | – | effect of cyclization on affinity (in words) [1]: cyclization of the V3 crown did not affect much of its interaction with mAb 447–52D |
| Fv 447–52D wild type | 19 µM | – | – | Kd [2]: 0.016 µM |
| B1 | 23 µM | 1.3 µM | 3.3 kcal/mol | – |
| B2 | 41 µM | 3.9 µM | 5.04 kcal/mol | – |
| B3 | – | 0.023 µM | – | Kd [6]: 5.1 µM; dH [5]: -8.54 kcal/mol |
| B4 | 50 µM | – | 1.22 kcal/mol | Kd [7]: 1.8 µM |
| B5 | 76 µM | – | 4.72 kcal/mol | fold decrease in neutralization capability [8]: 4.0 fold; Kd [7]: 5.4 µM |
| B6 | 68 µM | 3.9 µM | 4.02 kcal/mol | – |
